The values below come from the DeepSol protein solubility set.

The nature of this series: soluble on expression in E. coli; label from the status in PepcDB or PDB records.
“MKKGVLIAFEGIDGSGKSSQATLLKDWIELKRDVYLTEWNSSDWIHDIIKEAKKKDLLTPLTFSLIHATDFSDRYERYILPMLKSGFIVISDRYIYTAYARDSVRGVDIDWVKKLYSFAIKPDITFYIRVSPDIALERIKKSKRKIKPQEAGADIFPGLSPEEGFLKYQGLITEVYDKLVKDENFIVIDGTKTPKEIQIQIRKFVGELIDNSF”: the “soluble on expression in E. coli” value is on record as “soluble”.

Regarding “MGSDKIHHHHHHMLPGIVVKPLKTFADERGFFTEIMRRDWDVFEDEILQANMSVTYPGIVRAWHKHERGQVDYFVCIGGAIKICAYDDETQELAEIVSTGKNLQVVRVPGHYWHGFKAIGVEPAVLVYFVSRLYDYENPDEVRRPWNDSTIVPAKINGREDDPRCGKPWDWFYPPHK”, the “soluble on expression in E. coli” value is recorded as “not soluble”.

Consider “MNNKLTPVSPGEMLAEEFLIPLGMSNYRLAKEIGVSAQRIGEIVTGKRAITVDTDLRLCRFFGLSDGWWLRLQVDYDIEMARGALEETLAKIRPWANTQEHGTPA”, for which the “soluble on expression in E. coli” value was “not soluble”.

For “MGSDKIHHHHHHMPITQTTSAKKSKPIILMTMGQQDRNQHPYQVMTHKYMQPIVEIAGAIPLLMPTCFGIEDVDRYLDMVDGVYLSGAGSNIDPSLYGQENLTPEKSQDVNRDTVDLAIIAGALKRKLPILGICRGMQELNIALGGTLYQKVYSEPGFDDHREDPQTPNHVQYGPRHPIKTVPGSWLAKLIGDKTMVNSLHGQGICTLGKGLEALAYGEDGLIEAIHGPDYGQFILGVQWHPEWQANDNPDSIKLFQAFGSACRGEVSWQSANDAKLTA”, the “soluble on expression in E. coli” value is listed as “not soluble”.

For “MSLADYLTVTHLTKYLKLKFDRDPYLERVYLTGQVSNFRKRPTHQYFSLKDESAVIQATMWAGVYKKLGFDLEEGMKINVIGRVQLYEPSGSYSIVIEKAEPDGIGALALQFEQLKKKLTAEGYFEQKHKQPLPQFVSKIGVITSPSGAVIRDIITTVSRRFPGVEILLFPTKVQGDGAAQEVVANIRRANQREDLDLLIVGRGGGSIEDLWAFNEEIVVQAIFESQLPVISSVGHETDTTLADFVADRRAATPTAAAELATPITKTDLMSWIVERQNRSYQACLRRIKQRQEWVDKLSQSVIFRQPERLYDAYLQKIDRLSMTLMNTMKDRLSSAKENKVQLDHALANSQLQTKIERYQDRVATAKRLLMANMASQYDSQLARFEKAQDALLSLDASRIIARGYAMIEKNQALVASVSQITKGDQLTIKMRDGQLDVEVKDVKNENIEGHHHHHH”, the “soluble on expression in E. coli” value is given as “not soluble”.

“MSLKTKYIFVTGGVVSSLGKGITAASLGRLLKNRGLKVSIQKFDPYINVDPGTMSPYQHGEVFVTDDGAETDLDLGHYERFIDENLSKNSNVTTGKVYWSVINKERRGDYLGGTVQVIPHITNELKERVYRVAKEKDVDVVITEIGGTVGDIESLPFLEAIRQIKYEVGFGNSCFIHVTLLPYLRKAGEIKTKPTQHSVKELRGIGIQPDIIVCRTEKEISKDVRSKIGLFCNIDGDSVISNLDAENLYEVPLMLHDQGLDSLVCKKLELECQEVDNSEWESMVKNIKSLSGEVTIGLVGKYVELHDAYISVVESLNHGGFANNVSVNVKWINSEEVTKDNVDSVLSDVDGILVPGGFGDRGIEGKIEAIRWARENKIPFFGICLGMQCAVIEYARNVLGLEGAHSSEIDPQTKYPVIDLMPDQKDIDDKGGTMRLGLYACKLSKDTNAYDAYEEEVIYERHRHRYEFNNEFRKRLTEEGLILAGTSPDDRLVEIVEIKDHPWFVGVQFHPEFKSRPNRPHALFRDFIKVACTVKEKEGHHHHHH”: the “soluble on expression in E. coli” value is on record as “soluble”.

Turning to “MSLLHERINFNPKVDVEVKLPERLEEGKITEVNVVVRNRGSKGILEVKIEGEDLIGEAKRVKLDSGEKLVKLSVKPLNKGDKVLKVKALFEDELNLYYSEVYEAEFSIQVLPSVDSIREAAREEVSIRMREALKKGKIGVESTELYGLREYLPGDDVRRIDWKATTRLRKLIVKEFMRESEGDVYIVLDATREMRKRIRRSKIDYASSLVLYIATILIRSNKRVGLILFSEDEFKVVKPEKGSEQLERIRETLRFKPLKGLTSFKGEVGRLKTWDFLRKLFPRKRRGVEEALLSIRNPSYVILITDLMSNTPRLYSAVSMVKKKHKVIILSPNPVLFYSGELDEETLRFLYEKYRERERILRKFNSLVPTVDLGPSDYGREVLEVLEGEGHHHHHH”, the “soluble on expression in E. coli” value is on record as “not soluble”.
